{
  "source": "patent US20180207278A1",
  "about": "(Amgen, published 2018)",
  "binders": {"B1": {"name": "human monoclonal IgG1 antibody that binds to and neutralizes human GM-CSF (antibody, V domains shown)", "VH": "QVQLVQSGAEVKKPGASVKVSCKAFGYPFTDYLLHWVRQAPGQGLEWVGWLNPYSGDTNYAQKFQGRVTMTRDTSISTAYMELSRLRSDDTAVYYCTRTTLISVYFDYWGQGTMVTVSS", "VL": "DIQMTQSPSSVSASVGDRVTIACRASQNIRNILNWYQQRPGKAPQLLIYAASNLQSGVPSRFSGSGSGTDFTLTINSLQPEDFATYYCQQSYSMPRTFGGGTKLEIKR", "notes": "also called the antibody; anti-GM-CSF antibody"}},
  "key": {"[1]": {"molecular_target": "T1, GM-CSF (immobilized on the SPR sensor chip)", "T1 construct": "also called immobilized GM-CSF; Granulocyte-macrophage colony stimulating factor", "test": "SPR (Biacore 3000, GM-CSF immobilized on CM5 chip); antibody 5.4 mg/ml in 20 mM histidine + 250 mM threonine after 14 days at 55 C"}, "[2]": {"molecular_target": "T1, GM-CSF (immobilized on the SPR sensor …)", "test": "SPR (Biacore 3000, GM-CSF immobilized on CM5 chip); antibody 5.4 mg/ml in 20 mM acetate + 250 mM glutamic acid after 14 days at 55 C", "experimental": "(§1) The surface plasmon resonance (SPR) method was established to determine the degree of antibody binding activity to immobilized GM-CSF (Biacore 3000/CM5 sensor chip/HBS-EP running buffer). The SPR method was qualified by performing a nine-point range test, from which precision (six replicate injections) and linearity (triplicate standard curves) were determined and tested.\n(§2) […] Previous studies indicated stabilizing effects of: 20 mM acetate pH 5; 20 mM histidine pH 6; 250 mM glutamic acid; 250 mM threonine, 6% (w/v) sorbitol and 6% (w/v) mannitol. […] Antibody in 1×PBS was included as a control. At T0, T7 and T14 (days), samples were analyzed by SE-HPLC and SPR."}, "[3]": {"molecular_target": "T1, GM-CSF (immobilized on the SPR sensor …)", "test": "SPR (Biacore 3000, GM-CSF immobilized on CM5 chip); antibody 5.4 mg/ml in 1xPBS after 14 days at 55 C", "experimental": "as §1, §2"}, "[4]": {"molecular_target": "T1, GM-CSF (immobilized on the SPR sensor …)", "test": "SPR (Biacore 3000, GM-CSF immobilized on CM5 chip); antibody 5.4 mg/ml in formulations 5-16 of Table 1 (all with mannitol or sorbitol) after 14 days at 55 C", "experimental": "as §1, §2"}, "[5]": {"molecular_target": "T1, GM-CSF (immobilized on the SPR sensor …)", "test": "SPR (Biacore 3000, GM-CSF immobilized on CM5 chip); antibody 5.4 mg/ml in 20 mM acetate + 250 mM threonine after 14 days at 55 C", "experimental": "as §1, §2"}, "[6]": {"molecular_target": "T1, GM-CSF (immobilized on the SPR sensor …)", "test": "SPR (Biacore 3000, GM-CSF immobilized on CM5 chip); antibody 5.4 mg/ml in 20 mM histidine + 250 mM glutamic acid after 14 days at 55 C", "experimental": "as §1, §2"}},
  "data": [
    {"binder": "B1", "values": [
      {"measurement": "binding activity relative to T0", "setting": "[1]", "value": 85, "unit": "%"},
      {"measurement": "binding activity relative to T0", "setting": "[2]", "value": 19, "unit": "%"},
      {"measurement": "binding activity relative to T0", "setting": "[3]", "value": 62, "unit": "%"},
      {"measurement": "binding activity relative to T0", "setting": "[4]", "value": "> 93", "unit": "%"},
      {"measurement": "binding activity relative to T0", "setting": "[5]", "value": 26, "unit": "%"},
      {"measurement": "binding activity relative to T0", "setting": "[6]", "value": 91, "unit": "%"}
    ]}
  ]
}
